Results: patent US12551573B2, “Compositions and methods for the targeting of PCSK9” (Scribe Therapeutics Inc., priority 2022, dated 2026)

B1: DOMAIN_17317 (protein, listed as Otolemur garnettii)
chain: SQASVSFKDVNVEFTQDEWQQMGPAQRNLYRDVMLENYSNLVSVGYCIFKPKVIFRLEQGEEPWSSEEEFSSQRRPKNYRD
B2: DOMAIN_13539 (protein, listed as Gorilla sp.)
chain: CYQDSVTFDDVAVDFTQEEWTLLDSTQRSLYSDVMLENYKNLATVGGQIIKPSLISWLEQEESRTVQGGVLRGRKTQWRGT
B3: DOMAIN_16688 (protein)
chain: SQEQVSFKDVCVDFTREEWYLLDPAQKILYRDVILENYSHLVSVGNCITKPEVIFKIEQGEEPWILEERFPKQCCSERNWK
modifications: Lipotes vexillifer
B4: DOMAIN_13331 (protein, listed as Macaca fascicularis)
chain: FQGSISFKDVTVGFTQEEWQHLDPSQRALYRDVMLENYSNLVSVGYCVHKPEVISRLEQGEEPWRLEEEFPSQSFPVWTAD
B5: DOMAIN_12901 (protein, listed as Macaca fascicularis)
chain: MAFEDVAVYFSQEEWGLLDTAQRALYRHVMLENFTLVTSLGLSTSRPHVVIQLERGEEPWVPSGKDMTLARNTYRRLNAGE
B6: DOMAIN_11071 (protein, listed as Chrysochloris asiatica)
chain: SLEQVSFKDVCVDFTQEEWYLLDPAQKILYRDVILENYSNIVSVGHCGTKPEVIFKIEQGEEPWVLGEGFSSLQHPERNWK
B7: DOMAIN_11097 (protein, listed as Mandrillus leucophaeus)
chain: KEASVAFRDVAVDFTQEEWRLLSPAQRTLHREVMLETYNHLVSLEIPSSKPKLIAQLERGEEPWREERKCSLDLCPESKPE
B8: DOMAIN_11988 (protein)
chain: MAFEDVAVHFSQEEWGLLDTAQRSLYRRVMLENFALLASLGLSVSRPHVVTQLERGEEPWVLSGVDVTLPQDAQRRPRRGS
modifications: Muntiacus muntjak
B9: DOMAIN_12755 (protein, listed as Oryctolagus cuniculus)
chain: SLGPVSFKDVAVGFTQEEWRQLEPAQRRTYREVMLENYSHLVAVGCHFIKPDVITKLERGEEPWIEGGFLPQGCADEVWQA
B10: DOMAIN_11944 (protein, listed as Bos indicus)
chain: PQESVTFEDVAVNFSHEEWQCLTHAQRHLYKDVMLENYGNMVSLGFSFSKPPLISRLEQGTEPYVQDRQDWEFLSCSYPVS
B11: DOMAIN_12114 (protein, listed as Neophocaena asiaeorientalis)
chain: VQASLSFEDVAVRFTWEEWQLLDPSQKDLYRNVMLENYCNLVSVGYQTPKPDSLFQLEQGEPPWRVEGAGQSQTCPEEIWE
B12: DOMAIN_10612 (protein)
chain: ALESVTFRDVAVFFSRDEWLHLNPAQRALYREVMLDNYSALLSLGILFSKPKVILQLEQGEDPWMVENGVSQSACLGWESL
modifications: Vicugna pacos
B13: DOMAIN_12590 (protein, listed as Bos indicus)
chain: AQEPVTFNDVAVDFTQEEWGQLDLVQRTLYRDVMLETYGHLLSVGNQITKPEVISLLEQGEEPWSMEPAYPLQGTCPAPEI
B14: DOMAIN_12231 (protein)
chain: PQESVAFEDVAVYFTAKEWDIMVPAERALYRDVMLENYEAVAFVVPPTSKPALVSHLEQGKESCFTRPQGVLCRNDWRAGL
modifications: Nomascus leucogenys
B15: DOMAIN_11359 (protein, listed as Sus scrofa)
chain: AQGQVTFEDVAVCFSQEEWGLLDETQRLLYRSVMLETFSLMASLGLTSSRTHDISQLERWGEPFLSASGAMRATRPTGCWH
B16: DOMAIN_10057 (protein, listed as Mus musculus)
chain: MDALTFDDVHVHFTREEWSLLDPSQKRLYKDVMLEIYKNLTAIGYKWKDHNVGEHSQNDRRYGRHERSPAGENHNEYTQCD
B17: DOMAIN_10807 (protein, listed as Erinaceus europaeus)
chain: SQASVSFKDVTVEFTQDEWRLMSSAQRTLYREVMLENYSHLISMGYCSTKPELIFALEQKDFRESILERESLSTIPPEDFQ
B18: DOMAIN_12285 (protein, listed as Gorilla sp.)
chain: EPGAVSFADVAVYFCREEWGCLRPAQRTLYRDVMRETYGHLSALGIGGKKPALISWVEEEAELWGPAAQDPEVAKCPTQTD
B19: DOMAIN_12896 (protein, listed as Macaca fascicularis)
chain: DTVVFEDVVVGFTLEEWALLNPAQRNLYREVMLETFKHLASVDNEAQPKTNGSISQQDTSGEKLSLKQKIEKFTRKHTWAS
B20: DOMAIN_10974 (protein)
chain: AQMLVTFEEVAVYFTQGQGALLGPAQRALYRDVMQENYEMVTSLGFSLPKPELISRLERGEEPWVPDLQACEKRESLRGAR
modifications: Chelonia mydas
B21: DOMAIN_12206 (protein, listed as Bos mutus)
chain: QEQVSFKDVCVDFTQEEWYLLDPAQKILYRDVILENYSHLVSVGNCITKPEVIFKIEQGEEPWILEERFPKQWHSGKSYKY
B22: DOMAIN_11314 (protein, listed as Sus scrofa)
chain: VTFEDVALYFSRDEWRLLDEAQRRLYHDVMLQNFSLISSLGCCCGAEDAESPFQPSMFRDVSQARTLKAASLSQKNHPCEK
B23: DOMAIN_10359 (protein)
chain: AQGLMAFEDVAVYFSREEWGLLDAAQRALYRRVMLENFTLLASLGLSVSRPHVVIQLECGKEPWVLNGTDVTLARNAQRRP
modifications: Delphinapterus leucas
B24: DOMAIN_11581 (protein, listed as Equus caballus)
chain: LQVSVSFEDVTVDFSREEWQHLDPAQRRLYRDVTLENYSHLCSVGYQVPKPEVIFKLEQGEGPWMLEGEAPHQSCSDDDIG
B25: DOMAIN_11312 (protein, listed as Sus scrofa)
chain: ALGSVTFRDVAVFFSQDEWLHLDSAQKTLYQEVMLENYSTLVSLGIPFSMPKVICQLQQGEDPCMVEGEALRDPCLDFKTW
B26: DOMAIN_10241 (protein, listed as Octodon degus)
chain: PTAPVAFSDLTICFSQEEWGWLSPTQKLLYEEVMLENYQNLVSVGLCTRKPHIITLLEKGKDPWIAEPLRKRGGPDPASRY
B27: DOMAIN_11908 (protein, listed as Canis lupus)
chain: CEGSVSFEDVTMDFSREEWQQLDPAQRCLYQDVMLEIYSHLLFVGYNIPNPEIISRMEKGEEPWMREIQLPHQRHRERAFG
B28: DOMAIN_12550 (protein, listed as Ailuropoda melanoleuca)
chain: SDEAFSFEDLSVDFTQKEWQLLNPGQKDLYKDVMLENYSSLVSLGYEIMKPDVIFKLEQGEEPWIGDGEVPSSGCPADMSY
B29: DOMAIN_11321 (protein)
chain: GKELLSFEDVAMYFTREEWGHLNLGQKDLYRDVMLENYRNMVLLGFQFPKPEVICQLENWDEQWILDLPRAGNRKASGSAC
modifications: Nomascus leucogenys
B30: DOMAIN_9993 (protein, listed as Rattus norvegicus)
chain: DVVTYEDVHVNFTQEEWALLDPSQKRLYKVVMLETYKNLSAIGYIWEDHTIEQHFQSSRSHGRHKRHRTGEQPSELIQHGK
B31: DOMAIN_10763 (protein, listed as Mustela putorius)
chain: PKVPVSFEDVSVYFTKTEWKLLDVQQRILYKTVMLENYHHLVSLGCLSTKPHLVSWLEQGEGPWTTDIWRTPATAKTQTEG
B32: DOMAIN_10573 (protein, listed as Cervus elaphus)
chain: SHTLVTFKDILVNFTREEWKLLDTAQQIMYKDVMLENYRNLVSLGHQLPKPDVILRLEKGEEPWLVEKEIHQETHPDLETP
B33: DOMAIN_11796 (protein, listed as Sus scrofa)
chain: FRGPVTFKDITVEFTQEEWQLLDNAQRTLYREVMQENYHHLISVGYCVNKPNAVFKLKQGKEPWILEVEFPRRNNPEDLWN
B34: DOMAIN_11202 (protein)
chain: RQAFLAFGDVTVDFTQKEWRLLSPAQRALYREVTLENYSHLVSLGILHSKPELIRRLEQGEAPWGEERRRRPGPCAGIYAE
modifications: Nomascus leucogenys
B35: DOMAIN_12057 (protein)
chain: LLESVTFGDVAVVFSRDEWLHLDAAQRSLYREVMLENYSALVSLGIPLSIPKLICQLQQGEDPCMVEREIPQDVCLGFKTW
modifications: Muntiacus muntjak
B36: DOMAIN_11049 (protein, listed as Neophocaena asiaeorientalis)
chain: PQGCAISEDVFVYFSREEWVLLDEDQRLLYRDVMLENFALLASLGIASSRSHLVTQLEQGEEPWMPAQVDMTPATEKEAQK
B37: DOMAIN_11307 (protein, listed as Mandrillus leucophaeus)
chain: MAFEDVAVYFSQEEWGLLDTAQRALYRRVMLDNFALVASLGLSTSRPRVVIQLERGEEPWVPSRTDTILSRNTYRRRNPGS

system: HBEGF locus; format: cell-based, human; settings: high-throughput screen of dXR repression of the HBEGF gene; change in abundance of each domain in the library before and after diphtheria toxin selection

Which “Log2 (fold change)” value does the source give for B1 here?
Its value is 3.4551.

For B2, which “Log2 (fold change)” value is on record?
The value was 3.4924.

Which “Log2 (fold change)” value does the source give for B3 here?
Its value is 3.5601.

For B4, which “Log2 (fold change)” value is on record?
The value was 3.5154.

same assay, conditions: repressor domain in dXR, repression of the HBEGF gene; abundance of domain in library after vs before diphtheria toxin selection

How did the “Log2 (fold change)” value turn out when B5 was run?
Its value is 3.5686.

For B6, which “Log2 (fold change)” value is on record?
Its value is 3.1268.

B7 was tested. Which “Log2 (fold change)” value did it give?
The value was 3.239.

For B8, which “Log2 (fold change)” value is on record?
Its value is 3.5916.

With B9 as the molecule, how does the “Log2 (fold change)” value read?
Its value is 2.8082.

With B10 as the molecule, how does the “Log2 (fold change)” value read?
The value was 3.2762.

How did the “Log2 (fold change)” value turn out when B11 was run?
Its value is 3.3227.

With B12 as the molecule, how does the “Log2 (fold change)” value read?
Its value is 2.4997.

With B13 as the molecule, how does the “Log2 (fold change)” value read?
The value was 2.5531.

For B14, which “Log2 (fold change)” value is on record?
Its value is 2.6703.

Which “Log2 (fold change)” value does the source give for B15 here?
The value was 3.1036.

How did the “Log2 (fold change)” value turn out when B16 was run?
The value was 2.2961.

For B17, which “Log2 (fold change)” value is on record?
Its value is 3.5237.

For B18, which “Log2 (fold change)” value is on record?
Its value is 2.2573.

With B19 as the molecule, how does the “Log2 (fold change)” value read?
The value was 2.0413.

B20 was tested. Which “Log2 (fold change)” value did it give?
The value was 2.6444.

B21 was tested. Which “Log2 (fold change)” value did it give?
Its value is 2.9101.

For B22, which “Log2 (fold change)” value is on record?
The value was 2.9575.

B23 was tested. Which “Log2 (fold change)” value did it give?
Its value is 2.9199.

How did the “Log2 (fold change)” value turn out when B24 was run?
The value was 3.1882.

Which “Log2 (fold change)” value does the source give for B25 here?
Its value is 3.8532.

With B26 as the molecule, how does the “Log2 (fold change)” value read?
The value was 3.5766.

Which “Log2 (fold change)” value does the source give for B27 here?
Its value is 2.894.

Which “Log2 (fold change)” value does the source give for B28 here?
Its value is 3.0229.

For B29, which “Log2 (fold change)” value is on record?
The value was 2.9718.

For B30, which “Log2 (fold change)” value is on record?
The value was 2.7601.

B31 was tested. Which “Log2 (fold change)” value did it give?
The value was 2.5924.

How did the “Log2 (fold change)” value turn out when B32 was run?
Its value is 2.4077.

Which “Log2 (fold change)” value does the source give for B33 here?
Its value is 2.2811.

With B34 as the molecule, how does the “Log2 (fold change)” value read?
The value was 3.5851.

With B35 as the molecule, how does the “Log2 (fold change)” value read?
The value was 2.0631.

For B36, which “Log2 (fold change)” value is on record?
The value was 2.7072.

For B37, which “Log2 (fold change)” value is on record?
Its value is 3.6383.
